For test [1], the target named is T1, Raf-1 proteins present in T-cell lysates (Homo sapiens, UniProt P04049).
T1 construct: endogenous in cells; host or cells: PHA-stimulated human peripheral blood mononuclear cells (T cells), lysate
In words: Cell-free system: binding of Raf-1 from T-cell lysates to FLAG-HMK-IL-2Rβ chain fusion proteins on anti-FLAG beads, anti-Raf-1 immunoblot. Conditions: lysates from PHA activated peripheral blood mononuclear cells, FIG. 8b. The text has this: (ii) In order to study the interaction of IL-2Rβ chain with intracellular molecules, the FLAG-HMK-IL-2Rβ chain cytoplasmic domain fusion protein was purified from bacterial lysate using the M2 anti-FLAG monoclonal antibody in a standard affinity chromatography procedure. More specifically, bacterial lysate proteins were absorbed onto anti-FLAG (M2) affinity column (IBI-Kodak, New Haven, Conn., USA). After washing the column, the adsorbed proteins were eluted with either glycine buffer (pH 3) or FLAG peptide (10^−4M). Proteins in various fractions were analyzed for expected size (about 33 kDa) and purity after separation on SDS-PAGE and Commassie blue staining. The presence of a functional HMK recognition site was confirmed by phosphorylation of the purified 33 kDa IL-2Rβ chain fusion protein by HMK. More specifically, the eluted fusion proteins were tested for susceptibility to phosphorylation by incubation with the catalytic subunit of bovine heart muscle kinase (Sigma) (1 U/ul) in buffer containing 20 mM Tric-HCl, pH 7.5, 1 mM DTT, 100 mM NaCl, 10 mM MgCl2 and 1μCi [γ^32p] ATP for 30 min at 37° C. followed by SDS-PAGE and autoradiography. Purified FLAG-HMK-IL-2Rβ chain fusion proteins were used as an affinity reagent to probe for cytosolic proteins present in lysates of human T cells, metabolically labeled with [^35S ]-methionine, that bind to the IL-2Rβ chain. […] For [^35S]-methionine labeling, the cells were suspended at 4×10^7 cells/ml at 37° C. followed by addition of 0.5 mCi of [^35S]-methionine for 4 hours prior to lysis in Dounce homogenization buffer and application of the lysate to the affinity column. Several [^35S]-labeled proteins were retained by the FLAG-HMK-IL-2Rβ chain cytosolic domain fusion protein bound to the affinity column. One of these proteins was identified as Raf-1 by immunoblotting using a polyclonal antibody specific for the SP-63 peptide which corresponds to the C-terminal fragment of Raf-1. A molar excess of the competing SP-63 peptide blocked binding of the anti-SP-63 antibody to Raf-1.
Using the basic cell-free system described above, a number of FLAG-HMK-IL-2Rβ chain wild type FLAG-HMK-IL2Rβ chain deletion mutant proteins were then studied with respect to this specific interaction with Raf-i proteins present in T-cell lysates. These FLAG-HMK-IL2Rβ chain wild type (WT) and deletion mutants lacking certain defined domains of the IL-2Rβ chain were used to identify the IL-2Rβ chain domain involved in Raf-1 binding. Assay conditions were similar to those described above. […] In FIG. 1, there is shown, schematically, all of the constructs, i.e., FLAG-HMK-IL-2Rβ chain fusion proteins produced in transformed bacterial cells and used in this study. These FLAG-HMK- fusion proteins-coated beads were then used as affinity reagents to absorb Raf-1 proteins present in T-cell lysates. T-cell derived proteins bound to FLAG-HMK fusion proteins were then eluted using buffer containing FLAG peptide, separated on SDS-PAGE, transferred onto Immobilon membrane and blotted with anti-Raf-1 antibody.
The absorbed proteins were washed, eluted with FLAG peptide and probed for the presence of Raf-1 and 14-3-3 proteins on immunoblots. […] Washed cells (about 4×10^7) were lysed in Dounce homogenization buffer, centrifuged (15×10^3 xg for 15 min.) and supernatants applied onto washed anti-FLAG (M2) affinity column (IBI-Kodak) coated with bacterial lysates interacted with one of the FLAG-HMK fusion proteins. […]

In the next test the test system is 14-3-3 proteins. Put plainly: COS cells transfected with IL-2Rβ chain constructs, immunoprecipitated with Mik-β1, blotted with anti-14-3-3. The class given is cell-based. Conditions: transfected COS cell lysates, FIG. 8a. The method, then: (§1) COS cells were transfected via the DOTAP method (Boehringer-Mannheim, Indianapolis, Ind.) following the manufacturer's instructions. The transfection cocktail contained 5 μg of DNA total and […] of DOTAP in a final volume of […] HBS (25mM HEPES, pH 7.4 and lOOmM NaCl). The COS cells were grown in DMEM medium supplemented with 10% heat-inactivated fetal calf serum, penicillin/streptomycin, 25mM HEPES, pH 7.4, and L-glutamine. The COS cells were exposed to the transfection cocktail for 12 hours, washed and subsequently cultured in fresh medium. 24 hours after washing approximately 3×10^5 cells were harvested and washed twice in chilled PBS. A lysis buffer was prepared and consisted of […] NaCl, 50mM Tris pH=7.4, 0.5% CHAPS (Pierce), […] (Sigma), supplemented with the following protease inhibitors immediately before use: aprotinin (Sigma) 2.5mg/ml, leupeptin (Boehringer-Mannheim) 2.5 mg/ml; Pepstatin A (Boehringer-Mannheim) […], PMSF (Sigma) […], NaF (Sigma) 100mm and sodium orthovanadate (Sigma) lmM. The transfected COS cells were lysed in 0.5 ml of lysis buffer on ice for 10 minutes, and subsequently centrifuged at 12,000 xg for 5 minutes, remaining supernatants were collected, and supplemented with pre-immune serum and protein G-agarose beads (BRL-Gibco, Gaithersburg, MD), which had been previously washed in lysis buffer. […]

The next test relates to Raf-1. In words: COS cells transfected with IL-2Rβ chain constructs, immunoprecipitated with Mik-β1, blotted with anti-Raf-1. The test is classed as cell-based. Conditions: transfected COS cell lysates, FIG. 8a. The method, then: as §1

B1: IL-2Rβ-WT: human IL-2Rβ chain wild type expressed in COS cells from pRcCMV (protein)
chain: AVNGTSQFTCFYNSRANISCVWSQDGALQDTSCQVHAWPDRRRWNQTCELLPVSQASWACNLILGAPDSQKLTTVDIVTLRVLCREGVRWRVMAIQDFKPFENLRLMAPISLQVVHVETHRCNISWEISQASHYFERHLEFEARTLSPGHTWEEAPLLTLKQKQEWICLETLTPDTQYEFQVRVKPLQGEFTTWSPWSQPLAFRTKPAALGKDTIPWLGHLLVGLSGAFGFIILVYLLINCRNTGPWLKKVLKCNTPDPSKFFSQLSSEHGGDVQKWLSSPFPSSSFSPGGLAPEISPLEVLERDKVTQLLLQQDKVPEPASLSSNHSLTSCFTNQGYFFFHLPDALEIEACQVYFTYDPYSEEDPDEGVAGAPTGSSPQPLQPLSGEDDAYCTFPSRDDLLLFSPSLLGGPSPPSTAPGGSGAGEERMPPSLQERVPRDWDPQPLGPPTPGVPDLVDFQPPPELVLREAGEEVPDAGPREGVSFPWSRPPGQGEFRALNARLPLNTDAYLSLQELQGQDPTHLV
With B1, in test [1], the “binding to Raf-1” value is given as “bound to Raf-1”. Also, the “binding of 14-3-3 proteins” value in the test on 14-3-3 proteins is given as “bound”. The “binding of Raf-1” value in the test on Raf-1 is “bound”.
